The text below walks through data of patent publication US20250215095.

Series [1] has as its target T1, internally quenched peptide probe with CM PWGLSARS (SEQ ID NO: 691).
T1 chain: SPWGLSARSGKR

Series [2] deals with T2, internally quenched peptide probe with CM PWGLSGR (SEQ ID NO: 163).
T2 chain: SPWGLSGRGSKR

Series [3] addresses T3, internally quenched peptide probe with CM PAGLSGRS (SEQ ID NO: 687).
T3 chain: SPAGLSGRSGKR

In series [4] the target is T4, internally quenched peptide probe with CM PWGLSGKS (SEQ ID NO: 150).
T4 chain: SPWGLSGKSGKR

Series [5] has as its target T5, internally quenched peptide probe with CM PWGASGRS (SEQ ID NO: 689).
T5 chain: SPWGASGRSGKR

For series [6], the target named is T6, internally quenched peptide probe with CM WGLSGRS (SEQ ID NO: 685).
T6 chain: GSWGLSGRSGKR

For series [7], the target named is T7, internally quenched peptide probe with CM PWGLSGRS (SEQ ID NO: 12).
T7 chain: SPWGLSGRSGKR

For series [8], the target named is T8, internally quenched peptide probe with CM PWGLSGRA (SEQ ID NO: 693).
T8 chain: SPWGLSGRAGKR

For series [9], the target named is internally quenched peptide probe with CM PWGLRS (SEQ ID NO: 48).
Series [10] concerns the target T9, internally quenched peptide probe with CM PWGLSGAS (SEQ ID NO: 692).
T9 chain: SPWGLSGASGKR

Series [11] has as its target internally quenched peptide probe with CM RSPWGL (SEQ ID NO: 90).
In series [12] the target is T10, internally quenched peptide probe with CM PWGLAGRS (SEQ ID NO: 690).
T10 chain: SPWGLAGRSGKR

Series [13] addresses T11, internally quenched peptide probe with CM LSGKSPWGL (SEQ ID NO: 178).
T11 chain: SLSGKSPWGLGKR

In series [14] the target is T12, internally quenched peptide probe with CM PWGLSG (SEQ ID NO: 684).
T12 chain: SPWGLSGGGSKR

The target in series [15] is T13, internally quenched peptide probe with CM LSGRSPAGL (SEQ ID NO: 694).
T13 chain: SLSGRSPAGLGKR

Series [16] addresses T14, internally quenched peptide probe with CM PWALSGRS (SEQ ID NO: 688).
T14 chain: SPWALSGRSGKR

In series [17] the target is T15, internally quenched peptide probe with CM LSGRSPWGL (SEQ ID NO: 177).
T15 chain: SLSGRSPWGLGKR

Series [18] addresses T16, internally quenched peptide probe with CM AWGLSGRS (SEQ ID NO: 686).
T16 chain: SAWGLSGRSGKR

B1: matrix metalloprotease 2 (MMP2) (protein)
chain: YNFFPRKPKWDKNQITYRIIGYTPDLDPETVDDAFARAFQVWSDVTPLRFSRIHDGEADIMINFGRWEHGDGYPFDGKDGLLAHAFAPGTGVGGDSHFDDDELWTLGEGQVVRVKYGNADGEYCKFPFLFNGKEYNSCTDTGRSDGFLWCSTTYNFEKDGKYGFCPHEALFTMGGNAEGQPCKFPFRFQGTSYDSCTTEGRTDGYRWCGTTEDYDRDKKYGFCPETAMSTVGGNSEGAPCVFPFTFLGNKYESCTSAGRSDGKMWCATTANYDDDRKWGFCPDQGYSLFLVAAHEFGHAMGLEHSQDPGALMAPIYTYTKNFRLSQDDIKGIQELYGASPDIDLGTGPTPTLGPVTPEICKQDIVFDGIAQIRGEIFFFKDRFIWRTVTPRDKPMGPLLVATFWPELPEKIDAVYEAPQEEKAVFFAGNEYWIYSASTLERGYPKPLTSLGLPPDVQRVDAAFNWSKNKKTYIFAGDKFWRYNEVKKKMDPGFPKLIADAWNAIPDNLDAVVDLQGGGHSYFFKGAYYLKLENQSLKSVKFGSIKSDWLGC
For B1, the Probe Cleavage (pM/s) in [1] was 9580 pM/s; in [2], 6540 pM/s; in [3] it was “Above the limit of quantification”; in series [4], 1620 pM/s; in [5], 202 pM/s; in series [6], 66.4 pM/s. Also, the Probe Cleavage (pM/s) in series [7] was found to be 2920 pM/s; in series [8], 6100 pM/s; in series [9], 3800 pM/s; in series [10], 4370 pM/s; in series [11] it was 11700 pM/s; in [12] it was 4870 pM/s. The Probe Cleavage (pM/s) in [13] was 37.1 pM/s; in series [14], 3100 pM/s; in series [15] it was 2080 pM/s; in series [16] it was 4890 pM/s; in [17], 48.9 pM/s; in [18], 816 pM/s. Also, the Probe Cleavage (kcat/KM (M^-1 s^-1)) in [4] came to 59000 M⁻¹ s⁻¹; in series [7] it was 78000 M⁻¹ s⁻¹; in [9], 140000 M⁻¹ s⁻¹; in [11], 260000 M⁻¹ s⁻¹.

B2: membrane type serine protease 1 (MT-SP1) (protein)
chain: VVGGTDADEGEWPWQVSLHALGQGHICGASLISPNWLVSAAHCYIDDRGFRYSDPTQWTAFLGLHDQSQRSAPGVQERRLKRIISHPFFNDFTFDYDIALLELEKPAEYSSMVRPICLPDASHVFPAGKAIWVTGWGHTQYGGTGALILQKGEIRVINQTTCENLLPQQITPRMMCVGFLSGGVDSCQGDSGGPLSSVEADGRIFQAGVVSWGDGCAQRNKPGVYTRLPLFRDWIKENTGV
Turning to B2, the Probe Cleavage (pM/s) stood at 13100 pM/s in series [1]; 1290 pM/s in [2]; 16500 pM/s in series [3]; 2330 pM/s in [4]; 18000 pM/s in series [5]; 10600 pM/s in series [6]. Also, the Probe Cleavage (pM/s) is 7810 pM/s in series [7]; 7620 pM/s in [8]; 1230 pM/s in series [9]; 13 pM/s in series [10]; 2390 pM/s in [11]; 15800 pM/s in series [12]. In addition, the Probe Cleavage (pM/s) in [13] was found to be 595 pM/s; in series [14], 5.1 pM/s; in series [15], 1520 pM/s; in series [16] it was 15300 pM/s; in [17], 812 pM/s; in series [18], 17000 pM/s. The Probe Cleavage (kcat/KM (M^-1 s^-1)) in [4] was found to be 80000 M⁻¹ s⁻¹; in [7], 150000 M⁻¹ s⁻¹; in [9] it was 31000 M⁻¹ s⁻¹; in series [11], 48000 M⁻¹ s⁻¹.
